The data set in a line: soluble on expression in E. coli; label from the status in PepcDB or PDB records.
Consider “MSLNHPDYKLNLRSPGTPRGVSSVVGPSAVGASPGDKKSKNKSMRGKKKSIFETYMSKEDVSEGLKRGTLIQGVLRINPKKFHEAFIPSPDGDRDIFIDGVVARNRALNGDLVVVKLLPEDQWKAVKPESNDKEIEATYEADIPEEGCGHHPLQQSRKGWSGPDVIIEAQFDDSDSEDRHGNTSGLVDGVKKLSISTPDRGKEDSSTPVMKDENTPIPQDTRGLSEKSLQKSAKVVYILEKKHSRAATGILKLLADKNSDLFKKYALFSPSDHRVPRIYVPLKDCPQDFMTRPKDFANTLFICRIIDWKEDCNFALGQLAKSLGQAGEIEPETEGILTEYGVDFSDFSSEVLECLPQSLPWTIPPDEVGKRRDLRKDCIFTIDPSTARDLDDALACRRLTDGTFEVGVHIADVSYFVPEGSSLDKVAAERATSVYLVQKVVPMLPRLLCEELCSLNPMTDKLTFSVIWKLTPEGKILEEWFGRTIIRSCTKLSYDHAQSMIENPTEKIPEEELPPISPEHSVEEVHQAVLNLHSIAKQLRRQRFVDGALRLDQLKLAFTLDHETGLPQGCHIYEYRDSNKLVEEFMLLANMAVAHKIFRTFPEQALLRRHPPPQTKMLSDLVEFCDQMGLPMDVSSAGALNKSLTKTFGDDKYSLARKEVLTNMYSRPMQMALYFCSGMLQDQEQFRHYALNVPLYTHFTSPIRRFADVIVHRLLAAALGYSEQPDVEPDTLQKQADHCNDRRMASKRVQELSIGLFFAVLVKESGPLESEAMVMGVLNQAFDVLVLRFGVQKRIYCNALALRSYSFQKVGKKPELTLVWEPDDLEEEPTQQVITIFSLVDVVLQAEATALKYSAILKRPGLEKASEGHHHHHH”, for which the “soluble on expression in E. coli” value is on record as “soluble”. For the sequence “AESTLGAAAAQSGRYFGTAIASGKLGDSAYTTIASREFNMVTAENEMKIDATEPQRGQFNFSAGDRVYNWAVQNGKQVRGHTLAWHSQQPGWMQSLSGSTLRQAMIDHINGVMGHYKGKIAQWDVVSHAFSDDGSGGRRDSNLQRTGNDWIEVAFRTARAADPAAKLCYNDYNIENWTWAKTQGVYNMVRDFKQRGVPIDCVGFQSHFNSGSPYNSNFRTTLQNFAALGVDVAITELDIQGASSSTYAAVTNDCLAVSRCLGITVWGVRDTDSWRSGDTPLLFNGDGSKKAAYTAVLNALNGGSSTPPPSGGGQIKGVGSGRCLDVPNASTTDGTQVQLYDCHSATNQQWTYTDAGELRVYGDKCLDAAGTGNGTKVQIYSCWGGDNQKWRLNSDGSIVGVQSGLCLDAVGGGTANGTLIQLYSCSNGSNQRWTRT”, the “soluble on expression in E. coli” value was “soluble”. Turning to “MKIEVVSALPHSTVHSAVLSRRHRSVICAGPYEVLPLEGCSEPLPSTSTLSELPIECLRLSTDERTIGAATNAILKVADIITGHEVRNLTGHTLPITSLAASKFNPYCWYTGSSDCDWTQWDTRMNPSKIFGSKTPGVVRSIALSPGDRYVAVGTDETIQIFDARQREFIKTFNCSGHALELHPSDVLLSSVGHDRIVRFFCLETFEMISQSDPFLDDIQASAFDTHVMIAATNDSINLLTWEPCCDILTTVPLKNVEKVVNVNANGLDLDFICIGDNTERLEMRTYAIEELLSYSPSHELCGSIYEEDEDVDNSPIDEVKALPELTELSNLPPRSPGLSCEETETSASPVNSSSSHSSPTSPVKPAPVKHRSASQKLPGKSTKTLNPKPAGSTRSVTPVSTKPPRTFGTAKSVIVSSKPSLSGYNNRANPSPSMSDLRTTKSMAGSTTSLLSERAPKKRSTSSRRNQEPITITYIGRPRTPSEGDVASTVSSSTSRNRRPSPSVAKKTSPPSIYAITSSPAKRASSTASGPTARRQNSTSSVTSTTSAKTPVGVWGACIETVHDIGIVAKKENRNIRRLKMLTSRRTSNVDIPPEVCSDEQLVLTATRILSRRNDWSLNSCHAYLPVIIDNIASVDVTNRAIALEGLAAIADTLGERLVKFASMNSHRIGVDVAAEERAEKAKACVQHLRSLVKKRDWYYKQLDEPSILKLDPILELLKKI”, the “soluble on expression in E. coli” value was “not soluble”. For “MGSDKIHHHHHHMKKEKVEERIREILRPGWDLLTEEAMLYSATVGGKRIRPLLVLTLGEDLGVEEEKLLDVAVAVELFHTASLIHDDLPPIDNADFRRGKPSCHRTYGEDIALLAGDGLFFLAFSQISKIGNSKIFEEFSETAYKLLLGEAMDVEFERRKMEVSQEMVERMYAFKTGALFAFCFSAPFILKGKDHTKMKLLGEKFGVAFQIYDDLKDILGSFEKVGKDLGKDTEKVTLVKKVGIQKAREMADKYYEEVLKGIESEGLFRTLFLLKELKQMVEER”, the “soluble on expression in E. coli” value is listed as “soluble”.

With “MGSDKIHHHHHHMTSDDLLPYGYIDAHHHVWAPDSHGDAIGYGWLRDIGAMKPFGDPTPIQRDYLMAEFLSEAPDAPRASVHVQTDGTLPDPVAETRFVQAQADATDHPVKIVGLADLGAEDLTGTLDRHAESRDFCGVRQIAARLDHRPDLTFAPQDYLADEQWVNGLKILEDRGLTFDLQIYPEQAEAALEALSATPALTVIIDHALCPYDPAKITQWQAAVALMAARDNTFIKLSGWGMYDAEWDLNGGVSVQPLVSHILERFGADRVMWGSNFPVEKLATRYETCRDVHLDMVPEDAHQDVFFNSAAKTYGLTLT”, the “soluble on expression in E. coli” value was “not soluble”.

“MGSDKIHHHHHHAQSDGWSPKDHNLIKSVREDGRFLSSYGVVHAMLRNTEPRYAFHRDFSPKEFRKWQKGLRHAMEEIMKFPQIKNSPAPVCIKREQREGYRLEKWEFYPLPKCVSTFLVLIPDNINKPVPAILCIPGSGGNKEGLAGEPGIAPKLNDRYKDPKLTQALNFVKEGYIAVAVDNPAAGEASDLERYTLGSNYDYDVVSRYLLELGWSYLGYASYLDMQVLNWMKTQKHIRKDRIVVSGFSLGTEPMMVLGTLDTSIYAFVYNDFLCQTQERAEVMTMPDKNGRRPFPNSIRHLIPDFWKNFNFPDIVAALAPRPIILTEGGLDRDLDLVRKAYAIVGTPDNVKIYHYKKFSDPDTRKNVEYLPEGLDRNEYFRMVNVDGPNHYFKSELVVPWLRKLLEER”: the “soluble on expression in E. coli” value is given as “not soluble”. With “VNSVTISVEGMTCNSCVWTIEQQIGKVNGVHHIKVSLEEKNATIIYDPKLQTPKTLQEAIDDMGFDAVIHNIEGR”, the “soluble on expression in E. coli” value is recorded as “soluble”. For “MKTCFLSIWRVVDPIYFFFSRLSLIDNDQKSVFRVRLTKYKGHHVVLSDGTHIRKNDVLVKIHLHNIKLIRELQSIESAVRKGIIIYQKVYPSMPLLLDYINNHKKSEKIKGNHWITMLDKGVERLGFDVITPVNPFYRCFKKVSHVPILYLTSKPVSLRHLPNSSYLFISKEKLQKTYQKKDMAGDPLEHHHHHH”, the “soluble on expression in E. coli” value is listed as “not soluble”. In the case of “MSAIENIVISMENATERRKHITKQFESKKLSFSFFNAYTYQSINQSINQSINQSINQSINQSINQSINQSNSILHNIEESRILTKGEKGCLISHFLLWNKCVNENFEYLKIFEDDVILGENAEVFLNQNEWLKTRFDFNDIFIIRLETFLQPVKLEKQTKIPPFNSRNFDILKSTHWGTAGYIISQGAAKYVIEYLKNIPSDEIVAVDELIFNKLVDVDNYIVYQLNPAICIQELQANQSKSVLTSGLEKERQKRSKIRKKKTLKQRLTRIKENIIRALNRKKWKEQQRIKEMQGKEIVRFMLEHHHHHH” it was “not soluble”. Take “MRRILSVLLENESGALSRVVGLFSQRAFNIESLTVAPTDDPTLSRMTIEAVGDAQALEQIEKQLHKLVDVFKVVNLSEQEHIEREIVLAKVRAVGSSRDEIKRLADIFRGQIVDVTPKSYTIQLSGTNDKVDAFISALKEETTLLEIVRSGLISVSRGEKNILLEHHHHHH”: the “soluble on expression in E. coli” value is on record as “not soluble”. In the case of “KILDACCGSRMFWFDKQNDQVLFMDNRKHYEKLESGHIVAVNPNIVADFRKMPFDDNSFYHVVFDPPHLLRAGSNSWLAKKYGKLNEQTWKEDIQKGFSECMRVLKPNGTLVFKWNEDQIKLSEILSIIDYEPLYGNKRAKTHWLVFMKESEENESNG”, the “soluble on expression in E. coli” value was “soluble”. In the case of “MTNGIFKHSNQSILEDQDHVKKSTVEILMPAYVIGGPIRSIRVDKDRLFVLGMKNHPEVIDLTQMSHGTSLILEKIMSGNRYYTTQISMNQAAELCHVAHELKLVNLLKLVEMDMIRRPSTSMKHAVDALVLALKFGMLEAVNKLIDEIIFEFFNGLGLVGYCKSSTALEMIFDKNEMMLKEEIEVGRLNSEWNEPLPVGQEVVPSLPRGNNAQIPRIMLNVAKERIRSLVARPINSVKNGFAWISAQNLRRRGPRNHQDFPNFPD” it was “not soluble”; in that of “MDDTLFQLKFTAKQLEKLAKKAEKDSKAEQAKVKKALQQKNVECARVYAENAIRKKNEGVNWLRMASRVDAVASKVQTAVTMKGVTKNMAQVTKALDKALSAMDLQKVSAVMDRFEQQVQNLDVHTSVMEDSVSSATTLTTPQEQVDSLIVQIAEENGLEVLDQLSQLPEGASAVGESSVRSQEDQLSRRLAALRN”, “not soluble”; in that of “MAKKNPIQPGPEGYIPTPAAFQGCDLPPPGKALLYGEIVDEEVAMREAAKALLTRRNPTIFPGPLVLWGWNADAMEKAKAVLELAMEIPNCRIIPMPDYRPKYPKIDPEAEINPNHPNLTILHNKIEACIFVGVHCHYANLSLRMIRAGTNCFTIALCAEMGHEDAMVSLRDVHADEIRKFRDVVVEVRKELGIEWEPKLPPENPSLPKEDWVKISPLDFGEYAYLLIPRRGEIVEESE”, “not soluble”. As for “MTDKTSLSYKDAGVDIDAGNALVGRIKGVVKKTRRPEVMGGLGGFGALCALPQKYREPVLVSGTDGVGTKLRLAMDLKRHDTIGIDLVAMCVNDLVVQGAEPLFFLDYYATGKLDVDTASAVISGIAEGCLQSGCSLVGGETAEMPGMYHGEDYDVAGFCVGVVEKSEIIDGSKVSDGDVLIALGSSGPHSNGYSLVRKILEVSGCDPQTTELDGKPLADHLLAPTRIYVKSVLELIEKVDVHAIAHLTGGGFWENIPRVLPDNTQAVIDESSWQWPEVFNWLQTAGNVEHHEMYRTFNCGVGMIIALPAPEVDKALALLNANGENAWKIGIIKASDSEQRVVIE”, the “soluble on expression in E. coli” value is “soluble”. With “MEWAMNEHHQPFEEIRHYGTEGQEFWSARELAPLLDYRDWRNFQKVLARATQACEASNQAASDHFVETTKMVVLGSGAQRELEDVHLSRYACYLVVQNGDPAKPVIAAGQTYFAIQTRRQELADDEAFKQLREDEKRLFLRNELKEHNKQLVEAAQQAAVATATDFAIFQNHGYQGLYGGLDQKAIHQLKGLKKSQKILDHMGSTELAANLFRATQTEEKLKRDGVNSKQQANTTHFDVGSKVRQTIQELGGTMPEELPTPQVSIKQLENSVKITEKK”, the “soluble on expression in E. coli” value is on record as “not soluble”. On to “MSLEKKFVIWGRNPIIEALRAGRNLEKIYVAHDSHPPKELLELAKKRGVKVQRISRKKVEELAGTKKTQGVVALLSPVNYVSPHELFKECIEKKSFFIVIDHITDPQNVGNLLRTCEVLGGVGALISKDRTSPINETVVKASSGAVFHLKISKVSSLSRELKNFQKMGGWVFAVEKGGKDIREVDIPLPVALVLGSEDKGVSKSVLDISDQIVTIPMKGKVTSLNVGSAGAIAMWETAKKILEGHHHHHH”, for which the “soluble on expression in E. coli” value is on record as “soluble”.

With “MVVSMRWLLSVFTFLCMKYSEASNPRAIILQNFMDSNKEAVKNLKDDNVLSKALVKTFGLNSSSSSSLSDESSSNLVLMDSTTPCDSGWTKSTVNGMCYKIATADTTWYAAEDWCYSQRYGSHLTSVHSEAEAQWIAATYVSTGWFPYMDNWLGLRRSCDNSTYIWTDGTPVDYLWWQPGYPGSGDPEKSCVTIWVTSLLKLNPGYVQGQFDDIWDCGTNLATPTCRYDPTSTAPHIKYDTSYTCASTTTVSTTSTVTTTKPTTTTTTPTTTTTTPTTTTTESTTTETTSTTTPTTTTTAPTTTTTASTTTFKTTTITTTTQTTTPTTTATTTKPTTTTPTTTRTPVDCSAKCDPFWVSYSDGCYAKIQGTATFETAKLGCQSVGGEMAVITDAAMNEAIRLAFSTNIDSSVSNQAWIGTSSYSNWAPGKPDKAQGVAYSSYCNVIALSVVNKGKDFGFSRGVWTDYPCSLKQEFAICKRI”, the “soluble on expression in E. coli” value is reported as “not soluble”.

These data come from the DeepSol protein solubility set.
